For assay [1], the target named is T1, Nectin-like-4 (UniProt Q8NFZ8 21-324, limits assumed).
T1 construct: Bought recombinant protein; also called CADM4; IgSF4C
T1 sequence (looked up): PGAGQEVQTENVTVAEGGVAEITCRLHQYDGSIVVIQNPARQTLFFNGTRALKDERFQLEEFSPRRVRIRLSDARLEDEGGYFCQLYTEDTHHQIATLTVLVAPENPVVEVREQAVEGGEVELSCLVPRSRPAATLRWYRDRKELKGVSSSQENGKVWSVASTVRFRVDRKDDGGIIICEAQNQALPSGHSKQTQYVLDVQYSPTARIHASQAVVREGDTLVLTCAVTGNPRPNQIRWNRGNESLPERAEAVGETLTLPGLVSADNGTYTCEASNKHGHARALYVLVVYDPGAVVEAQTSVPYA
The assay can be described thus: ELISA, coated antigen, antibody at 10000 ng/ml. The method, then: (§1) Coating: Nectin-1, Nectin-2, Nectin-3, Nectin-4, Nectin-like-1, Nectin-like-2, Nectin-like-3, Nectin-like-4, and Nectin-like-5 were diluted to 5 μg/ml in coating buffer (carbonate buffer, pH 9.6) respectively. A 96-well plate was coat with 100 μl per well and incubated overnight at 2-8° C.;
(§2) Sample loading: The plate was taken out, patted dry, and washed twice with 200 μl/well of PBST, then patted dry. The Nectin-4 antibodies prepared in Example 1 (antibody MM11, antibody R012, and antibody R036) were diluted with 1% BSA/PBST to concentrations of 10 μg/ml, 1 μg/ml, 100 ng/ml, and 10 ng/ml, respectively. 1% BSA/PBST solution for dilution was set as a blank control. 100 μl per well was added to the 96-well plate, and incubated at room temperature for 2 hours;
(§3) Reaction termination and plate reading: 100 μl/well of 1 mol/L H3PO4 was added to terminate the reaction and the plated was read. The absorbances of wells in the plate at 450 nm with 650 nm as reference wavelength were read and recorded as OD_{450 nm-650 nm}.
In general terms: ELISA stands for enzyme-linked immunosorbent assay.

Assay [2] deals with T2, Nectin-1 (UniProt Q15223 31-334, limits assumed).
T2 construct: Bought recombinant protein; also called CD111; PVRL-1
T2 sequence (looked up): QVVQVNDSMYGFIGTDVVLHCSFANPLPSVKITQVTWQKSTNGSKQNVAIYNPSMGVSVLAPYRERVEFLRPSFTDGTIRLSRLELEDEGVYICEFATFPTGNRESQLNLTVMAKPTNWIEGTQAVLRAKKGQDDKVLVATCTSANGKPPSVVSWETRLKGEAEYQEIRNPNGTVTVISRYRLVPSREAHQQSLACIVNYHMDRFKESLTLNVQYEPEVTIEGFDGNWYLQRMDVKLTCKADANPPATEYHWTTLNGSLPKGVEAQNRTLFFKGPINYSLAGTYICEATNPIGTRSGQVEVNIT
The assay is described as follows: ELISA, coated antigen, antibody at 10000 ng/ml. The method, then: as §1, §2, §3

In assay [3] the target is T3, Nectin-like-2 (UniProt Q9BY67 45-374, limits assumed).
T3 construct: Bought recombinant protein; also called CADM1; IgSF4
T3 sequence (looked up): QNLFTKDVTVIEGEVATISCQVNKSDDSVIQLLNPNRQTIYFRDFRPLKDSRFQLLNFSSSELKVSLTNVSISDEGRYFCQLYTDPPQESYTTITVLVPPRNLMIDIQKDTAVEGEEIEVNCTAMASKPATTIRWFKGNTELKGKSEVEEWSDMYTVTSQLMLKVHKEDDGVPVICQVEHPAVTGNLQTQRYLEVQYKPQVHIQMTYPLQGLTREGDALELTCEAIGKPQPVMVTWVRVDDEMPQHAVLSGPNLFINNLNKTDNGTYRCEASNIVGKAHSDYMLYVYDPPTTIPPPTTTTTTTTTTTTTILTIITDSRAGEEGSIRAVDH
The assay is described as follows: ELISA, coated antigen, 0 ng/ml antibody (blank control). The procedure: as §1, §2, §3

In assay [4] the target is T4, recombinant human Nectin-4 protein (human, UniProt Q96NY8 32-349).
T4 construct: Prepared in-house (Jiangsu Mabwell) by transient transfection of CHO cells; also called PVRL-4; PRR-4
T4 sequence: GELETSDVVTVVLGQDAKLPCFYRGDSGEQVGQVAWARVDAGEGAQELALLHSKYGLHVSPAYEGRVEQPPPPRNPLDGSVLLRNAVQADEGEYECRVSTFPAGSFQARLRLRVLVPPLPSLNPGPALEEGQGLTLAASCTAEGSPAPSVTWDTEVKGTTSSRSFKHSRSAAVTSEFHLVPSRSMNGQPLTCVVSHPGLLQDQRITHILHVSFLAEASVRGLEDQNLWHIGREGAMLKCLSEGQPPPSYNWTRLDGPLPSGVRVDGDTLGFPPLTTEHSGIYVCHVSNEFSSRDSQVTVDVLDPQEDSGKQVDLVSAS
The description is as above. The procedure:
as §1, §2, §3

Assay [5] concerns the target T2, Nectin-1. Described as above. The procedure:
as §1, §2, §3

Assay [6] has as its target T5, Nectin-3 (UniProt Q9NQS3 58-404, limits assumed).
T5 construct: Bought recombinant protein; also called CD113; PVRL-3
The assay is described as above. The method, then:
as §1, §2, §3

Assay [7] concerns the target T6, Nectin-like-1 (UniProt Q8N126 25-330, limits assumed).
T6 construct: Bought recombinant protein; also called CADM3; IgSF4B
T6 sequence (looked up): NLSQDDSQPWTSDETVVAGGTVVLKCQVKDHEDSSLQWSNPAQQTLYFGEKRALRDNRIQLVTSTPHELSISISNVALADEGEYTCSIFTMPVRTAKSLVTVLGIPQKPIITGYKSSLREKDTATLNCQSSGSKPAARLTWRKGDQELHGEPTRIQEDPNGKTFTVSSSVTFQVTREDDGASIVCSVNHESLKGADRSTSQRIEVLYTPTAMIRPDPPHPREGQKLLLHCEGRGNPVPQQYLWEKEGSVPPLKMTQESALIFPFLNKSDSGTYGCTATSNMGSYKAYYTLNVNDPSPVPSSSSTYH
The assay is described as above. The procedure:
as §1, §2, §3

T5 sequence (Q9NQS3 58-404 limits assumed): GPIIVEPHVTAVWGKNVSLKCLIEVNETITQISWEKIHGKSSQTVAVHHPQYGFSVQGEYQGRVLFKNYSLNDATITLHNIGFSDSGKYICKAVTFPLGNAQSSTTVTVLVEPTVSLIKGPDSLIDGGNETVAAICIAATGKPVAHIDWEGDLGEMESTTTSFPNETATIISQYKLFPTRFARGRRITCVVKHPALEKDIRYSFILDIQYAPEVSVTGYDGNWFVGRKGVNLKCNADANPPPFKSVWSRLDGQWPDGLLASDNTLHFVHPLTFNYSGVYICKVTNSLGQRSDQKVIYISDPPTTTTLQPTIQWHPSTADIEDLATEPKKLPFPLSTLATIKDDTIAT

B1: Antibody R012 (antibody, V domains shown)
VH: SKSVEESGGRLVTPGTPLTLTCTVSGFSLSTYAMSWVRQAPGKGLEYIGIISGRGTTYYASWLKGRFTISKTSTTVDLKITSPTTEDTATYFCARDAGISDVYTGYFNLWGQGTLVTVSS
VL: QPVLAQLPSASAALGASAKLTCTLSSAHRTYTIAWYQQQQGEAPRYLMMLKSDGSYTKGTGVPDRFSGSSSGADRYLIISSVQAADEADYYCGADDSGGYVFGGGTQLTVTG
notes: Rabbit monoclonal antibody from phage display; also called Nectin-4 rabbit monoclonal antibody R012; rabbit antibody R012
B1: the OD detection value in assay [1] was 0.007 OD450 nm-650 nm; in assay [2], 0.008 OD450 nm-650 nm; in assay [3] it was 0.008 OD450 nm-650 nm; in assay [4] it was 0.008 OD450 nm-650 nm; in assay [5], 0.007 OD450 nm-650 nm; in assay [6], 0.008 OD450 nm-650 nm. Also, in assay [7], the OD detection value was determined as 0.008 OD450 nm-650 nm.

B2: Antibody R036 (antibody, V domains shown)
VH: SQSVEESGGRLVTPGTPLTLTCTVSGFSLSSYAMSWVRQAPGKGLEYIGIIGGRGTTYYAIWAKGRFTISKTSTTVDLKITSPTTEDTATYFCARDAGTTYVGTTYVATGYFNLWGQGTLVTVSS
VL: QPVLTQPPSASAALGASAKLTCTLSSAHKTYTIAWYQQQQGEAPRYLMILKSDGSYTRGTGVPDRFSGSSSGADRYLIISSVQADDEADYYCGADDSGGYVFGGGTQLTVTG
notes: Rabbit monoclonal antibody from phage display; also called Nectin-4 rabbit monoclonal antibody R036; rabbit antibody R036
B2: the OD detection value in assay [1] was determined as 0.006 OD450 nm-650 nm; in assay [2] it was 0.006 OD450 nm-650 nm; in assay [3] it was 0.007 OD450 nm-650 nm; in assay [4], 0.007 OD450 nm-650 nm; in assay [5], 0.007 OD450 nm-650 nm; in assay [6], 0.007 OD450 nm-650 nm. Also, the OD detection value in assay [7] was 0.007 OD450 nm-650 nm.

B3: Antibody MM11 (antibody, mouse IgG1, kappa, V domains shown)
VH: DVQLQESGPGLVKPSQSLSLTCSVTGYSITSNFYWNWIRQFPGNRLEWMGYISYDGSNNYNPSLKNRISISRDTSKNQFFLKLNSVTTEDTATYYCVRADYWGQGTLVTVSA
VL: DTVMTQTPLSLPVSLGDQASISCRSSQSLESSDGHAYLNWYLQKPGQSPQLLIYRVSNRFSGVLHRFSGSGSGTDFTLKISRVEAEDLGVYFCLQFTHVPFTFGSGTKLEIKR
notes: Mouse monoclonal antibody from hybridoma; also called Nectin-4 mouse monoclonal antibody MM11; mouse antibody MM11
Turning to B3, the OD detection value stood at 0.009 OD450 nm-650 nm in assay [1]; 0.012 OD450 nm-650 nm in assay [2]; 0.006 OD450 nm-650 nm in assay [3]; 0.008 OD450 nm-650 nm in assay [4]; 0.005 OD450 nm-650 nm in assay [5]; 0.006 OD450 nm-650 nm in assay [6]. The molecule further yielded an OD detection value in assay [7] of 0.007 OD450 nm-650 nm.

For the origin of these results see US20260265354A1 (JIANGSU MABWELL HEALTH PHARMACEUTICAL R AND D, published 2026).
